# Measurements published in US10266842B2 (priority 2013, dated 2019).
# B1: LserFCP1-77: 77-residue polypeptide of SEQ ID No. 1 (Lucilia sericata), prepared by solid-phase synthesis or recombinantly in E. coli (protein, listed as Lucilia sericata)
# chain: QHGYGAGGHGQQGYGSQHSSHAPQGGHVVREQGFSGHVHEQQAGHHHEAGHHEQAGHHEQSGQQVHGQGHGYKSHGY
# B2: LserFCP1-73: 73-residue polypeptide of SEQ ID No. 2; LserFCP1-77 lacking the last four residues, made recombinantly in E. coli (protein, listed as Lucilia sericata)
# chain: QHGYGAGGHGQQGYGSQHSSHAPQGGHVVREQGFSGHVHEQQAGHHHEAGHHEQAGHHEQSGQQVHGQGHGYK
# Tested on: Fusarium graminearum (Strain IFA 65)
# Format: cell-based
molecule,measurement,setting,value
B1,IC50,"Fusarium graminearum spores, 24 h at room temperature, from dose-effect relationship (FIG. 8), read-out: concentration in which a half-maximum inhibition (of spore germination) occurred",1600 nM
B2,inhibition of spore germination,"100 μM, compared to a water control (FIG. 9)",complete inhibition
